The experiment addresses Gαo, alpha subunit of the heterotrimeric G protein Go (native, mouse brain) (mouse (endogenous in BALB/c mouse brain)) (UniProt P18872). Description: co-IP; mouse brain lysate (2 mg/ml in IP buffer: 50 mM HEPES pH 7.4, 100 mM NaCl, 1 mM EDTA, 3 mM EGTA, 10 mM MgCl2, 1% Triton X-100) with 100 µM GDP, 4 °C, 2 h; Gαo precipitated with anti-Gαo sc-13532 cross-linked to protein A/G agarose; read by protein stain and western blot.
Chain of UniProt P18872 (P18872 whole entry, one chain of several): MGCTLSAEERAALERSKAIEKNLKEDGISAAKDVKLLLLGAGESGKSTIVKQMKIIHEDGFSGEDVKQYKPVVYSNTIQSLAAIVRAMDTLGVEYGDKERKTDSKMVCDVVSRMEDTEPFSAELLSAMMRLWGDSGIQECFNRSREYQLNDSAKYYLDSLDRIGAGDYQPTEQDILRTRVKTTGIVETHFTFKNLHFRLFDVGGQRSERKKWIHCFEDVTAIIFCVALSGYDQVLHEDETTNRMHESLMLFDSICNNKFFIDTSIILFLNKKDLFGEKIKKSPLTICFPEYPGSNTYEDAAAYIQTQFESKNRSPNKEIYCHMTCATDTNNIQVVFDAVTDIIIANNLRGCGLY

In turn, “Gβγ (G protein β and γ subunits, native, mouse brain) (from UniProt P62874 1-340; P63213 1-71) (complex)” yielded a stoichiometry N of 1.

For the origin of these results see PMC12677461.
